Experimental data taken from patent US20140112930A1 (published 2014).

Key:
Human Ang-2FD-hFc = biological target: T1, Human Ang-2FD-hFc (human); assay: blocking ELISA, 16.67 nM antibody, Ang-2FD-hFc to coated hTie-2-mFc
T1 construct: also called dimeric human Ang-2FD; human Ang-2FD protein conjugated to human IgG

Mouse Ang-2FD-hFc = biological target: T2, Mouse Ang-2FD-hFc (mouse (Mus musculus)); assay: as above
T2 construct: also called dimeric mouse Ang-2FD

Biotin-hBA2 = biological target: T3, Biotin-hBA2 (human, biotinylated (sites not given)); assay: blocking ELISA, biotin-hBA2 to hTie-2; NB = no blocking observed at 5 nM concentration
T3 construct: hBA2 consists of two dimers; also called biotinylated hBA2; human bow-Ang2
T3 sequence (chain, as listed by the source limits assumed): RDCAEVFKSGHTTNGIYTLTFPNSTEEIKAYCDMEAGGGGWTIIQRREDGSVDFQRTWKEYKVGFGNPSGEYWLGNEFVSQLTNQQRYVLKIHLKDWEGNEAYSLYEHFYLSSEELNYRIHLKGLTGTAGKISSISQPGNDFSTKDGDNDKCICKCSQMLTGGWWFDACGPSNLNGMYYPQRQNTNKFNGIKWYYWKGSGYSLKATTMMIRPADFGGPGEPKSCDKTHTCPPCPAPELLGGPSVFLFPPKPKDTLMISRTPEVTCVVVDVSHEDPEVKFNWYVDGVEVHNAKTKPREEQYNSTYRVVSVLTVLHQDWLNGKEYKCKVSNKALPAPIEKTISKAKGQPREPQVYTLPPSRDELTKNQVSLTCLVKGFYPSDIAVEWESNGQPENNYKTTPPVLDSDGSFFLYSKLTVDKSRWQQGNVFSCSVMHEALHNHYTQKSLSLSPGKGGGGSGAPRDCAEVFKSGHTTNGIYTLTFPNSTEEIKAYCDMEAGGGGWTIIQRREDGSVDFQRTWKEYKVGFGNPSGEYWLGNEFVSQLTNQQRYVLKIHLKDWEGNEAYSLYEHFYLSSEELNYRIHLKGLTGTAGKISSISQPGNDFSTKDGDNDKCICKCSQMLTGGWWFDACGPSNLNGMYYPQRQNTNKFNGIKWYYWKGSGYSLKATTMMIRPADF
Description: The plate was then blocked with PBS (Irvine Scientific, Santa Ana, Calif.) containing 0.5% BSA (Sigma-Aldrich Corp., St. Louis, Mo.) for one hour at room temperature. […] Human, mouse or monkey Ang-2FD protein conjugated to human IgG (Ang-2FD-hFc) were added to final concentrations of 2 nM, 8 nM, or 2 nM respectively and incubated for one hour at room temperature. The antibody/Ang-2FD-Fc mixture was then added to the plate containing hTie-2-mFc and incubated for one hour at room temperature. Detection of Ang-2FD-hFc bound to hTie-2-mFc protein was determined with Horse-Radish Peroxidase (HRP) conjugated to a-human IgG antibody (Jackson Immuno Research Lab, West Grove, Pa.) and developed by standard colorimetric response using tetramethylbenzidine (TMB) substrate (BD Biosciences, San Jose, Calif.). Absorbance was read at OD₄₅₀ for 0.1 sec.
For this experiment, human Tie-2 conjugated to a histidine tag (hTie-2-His; SEQ ID NO:526) was used in a similar fashion to the hTie-2-mFc described above. Antibody concentrations from 5 nM were serially diluted three-fold. […] An average IC₅₀ value for each antibody was calculated based on two separate experiments.

T2 sequence (chain, as listed by the source limits assumed): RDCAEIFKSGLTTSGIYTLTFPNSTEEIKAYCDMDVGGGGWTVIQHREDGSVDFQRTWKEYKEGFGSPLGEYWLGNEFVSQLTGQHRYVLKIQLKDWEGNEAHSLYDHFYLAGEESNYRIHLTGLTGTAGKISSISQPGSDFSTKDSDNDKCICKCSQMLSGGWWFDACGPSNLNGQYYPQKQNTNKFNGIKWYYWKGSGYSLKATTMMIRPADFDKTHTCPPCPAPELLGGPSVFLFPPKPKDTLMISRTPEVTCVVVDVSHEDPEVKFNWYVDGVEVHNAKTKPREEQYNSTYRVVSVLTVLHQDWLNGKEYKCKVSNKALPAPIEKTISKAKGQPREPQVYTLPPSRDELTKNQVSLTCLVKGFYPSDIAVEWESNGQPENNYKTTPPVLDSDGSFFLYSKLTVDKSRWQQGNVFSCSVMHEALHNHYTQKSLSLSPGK
T1 sequence (chain, as listed by the source limits assumed): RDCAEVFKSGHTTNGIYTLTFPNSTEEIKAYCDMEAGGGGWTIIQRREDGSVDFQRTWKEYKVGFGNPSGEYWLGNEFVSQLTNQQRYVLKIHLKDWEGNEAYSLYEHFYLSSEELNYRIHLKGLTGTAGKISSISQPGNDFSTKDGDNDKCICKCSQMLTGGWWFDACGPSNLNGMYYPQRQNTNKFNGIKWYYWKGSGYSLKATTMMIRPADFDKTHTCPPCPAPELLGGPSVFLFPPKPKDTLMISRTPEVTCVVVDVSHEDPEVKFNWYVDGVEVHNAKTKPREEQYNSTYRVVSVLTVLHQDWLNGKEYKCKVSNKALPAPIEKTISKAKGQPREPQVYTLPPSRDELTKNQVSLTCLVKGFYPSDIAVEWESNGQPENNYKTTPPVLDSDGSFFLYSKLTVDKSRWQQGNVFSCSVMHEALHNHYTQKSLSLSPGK

B1: H1H693P (antibody, human IgG1, V domains shown)
VH: EVQLVESGGGLVQPGESLRLSCAASGFTFSSYAMSWVRQGPGKGLEWVSSISGSGGTTYYADSVEGRFTISRDNSKNTLYLHMNSLRAEDTAVYYCAKDFLDYSTYLAFDLWGQGTMVTVSS
VL: DIQMTQSPSSVSASVGDRVTITCRASQGISSWLAWYQQKPGKAPKLLIYAASSLQSGVPSRFSGSGSGTDFTLTISSLQPEDFATYYCQQANSFPRTFGQGTKVEIK
notes: Human IgG1
For B1, the “Percent Blocking of Ang-2FD Binding to Tie-2” value (Human Ang-2FD-hFc) was 73.9%, the “Percent Blocking of Ang-2FD Binding to Tie-2” value (Mouse Ang-2FD-hFc) was 63.6% and the IC50 (Biotin-hBA2) was greater than 5 nM.
